Test results from patent US20250270331A1 (MERUS N V, published 2025).

T1: T52A
T1 construct: also called human TGF-βRII with T52A (alanine scan clone)
T1 receptor: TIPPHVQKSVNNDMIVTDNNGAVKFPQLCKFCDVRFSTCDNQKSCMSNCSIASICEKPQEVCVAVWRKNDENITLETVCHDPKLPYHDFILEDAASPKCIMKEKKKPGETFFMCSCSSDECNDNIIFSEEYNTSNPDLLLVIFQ

T2: D119A
T2 construct: also called human TGF-βRII with D119A (alanine scan clone)
T2 receptor: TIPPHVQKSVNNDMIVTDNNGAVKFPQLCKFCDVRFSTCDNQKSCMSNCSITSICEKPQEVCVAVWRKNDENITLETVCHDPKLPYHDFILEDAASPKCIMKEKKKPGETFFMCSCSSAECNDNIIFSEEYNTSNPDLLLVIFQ

T3: F25A
T3 construct: also called human TGF-βRII with F25A (alanine scan clone)
T3 receptor: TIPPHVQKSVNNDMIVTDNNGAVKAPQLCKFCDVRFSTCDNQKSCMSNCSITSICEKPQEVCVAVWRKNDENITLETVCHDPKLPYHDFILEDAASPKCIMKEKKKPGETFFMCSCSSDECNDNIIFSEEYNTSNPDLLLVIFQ

T4: E120A
T4 construct: also called human TGF-βRII with E120A (alanine scan clone)
T4 receptor: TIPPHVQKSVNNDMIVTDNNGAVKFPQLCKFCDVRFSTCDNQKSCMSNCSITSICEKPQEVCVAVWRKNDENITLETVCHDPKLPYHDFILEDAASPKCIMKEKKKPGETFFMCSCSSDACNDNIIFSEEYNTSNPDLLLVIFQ

T5: I54A
T5 construct: also called human TGF-βRII with I54A (alanine scan clone)
T5 receptor: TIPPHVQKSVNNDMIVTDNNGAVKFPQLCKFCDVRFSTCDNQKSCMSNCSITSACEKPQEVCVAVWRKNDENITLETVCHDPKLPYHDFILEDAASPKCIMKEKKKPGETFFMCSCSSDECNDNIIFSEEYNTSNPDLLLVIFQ

T6: L28A
T6 construct: L28 is named only on the sheet; also called human TGF-βRII with L28A (alanine scan clone)
T6 receptor: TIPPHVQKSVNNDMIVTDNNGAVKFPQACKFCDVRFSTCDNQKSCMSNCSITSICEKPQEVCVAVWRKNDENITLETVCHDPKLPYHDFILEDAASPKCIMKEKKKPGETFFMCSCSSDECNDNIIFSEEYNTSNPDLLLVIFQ


Legend:
[1] = target: T1, T52A; assay: shotgun mutagenesis alanine scan, mean fluorescence of the mutant clone in % of wildtype
[2] = target: T2, D119A; assay: as above
[3] = target: T3, F25A; assay: as above
[4] = target: T4, E120A; assay: as above
[5] = target: T5, I54A; assay: as above
[6] = target: T6, L28A; assay: as above
[7] = target: T7, Human TGF-βRII-Fc (R&D; cat. no. 341-BR) (human, UniProt P37173 23-159); assay: ELISA; blocking of TGF-βRII-Fc binding to coated TGF-β1
T7 construct: Bought construct; not shown: Fc part of the bought fusion

[8] = target: T7, Human TGF-βRII-Fc (R&D; cat. no. 341-BR); assay: ligand blocking ELISA: TGF-βRII-Fc on coated TGF-β1, antibody titrated (OD450)

Binder	Binding Reactivity (% WT) [1] [% WT]	Binding Reactivity (% WT) [2] [% WT]	Binding Reactivity (% WT) [3] [% WT]	Binding Reactivity (% WT) [4] [% WT]	Binding Reactivity (% WT) [5] [% WT]	Binding Reactivity (% WT) [6] [% WT]	IC50 [7] [µg/mL]	IC50 (read off the curve) [8] [µg/mL]
antibody comprising heavy chain variable regions having SEQ ID NO: 93 (antibody, V domains shown, From the second round of immunization; tested as bivalent IgG) VH: EVQLVESGGDLVKPGGSLRLSCAASGFTFSNAWMSWVRQAPGKGLEWVGRVKTTVSGGTTDYAAAVKGRFTISRDDSKNTLYLQMNSLKTEDTAIYYCTIDLRDYWGQGTLVTVSS VL: not shown	23.4	2.8	2.28	91.5	24	22.8	0.155	–
antibody comprising heavy chain variable regions having SEQ ID NO: 94 (antibody, V domains shown, IgG expressed in 293T freestyle cells) VH: EVQLVESGGGLVQPGGSLRLSCAASGFTFSRYAMSWVRQAPGKGLEWVSSINTSGGNTFYADSVKGRFTISRDNSKNTLYLQMNSLRAEDTAIYYCAKGIAATGKNYFDPWGQGTLVTVSS VL: not shown	–	–	–	–	–	–	–	~0.03
